Legend:
[1] = toxicological assessment of peptide-PMO in C57BL/6 mice (urinary KIM-1, NGAL; serum BUN); type: in vivo, mouse; details: 7 days after single dose of 30 mg/kg, FIG. 7
Procedure: Female C57BL/6 mice aged 8-10 weeks were administered a single 30 mg/kg dose of peptide-PMO in 0.9% saline by bolus intravenous tail vein injection. Urine was non-invasively collected under chilled conditions at Day 2 and Day 7 post-administration following 20 hours housing in metabolic cages (Tecniplast, UK). Serum was collected from jugular vein at Day 7 at necropsy, as was tibialis anterior, diaphragm and heart tissue.
The same procedure was followed at different single dosage amounts ranging from 2.5 mg/kg up to 50 mg/kg of peptide-PMO in 0.9% saline by intravenous tail vein injection.
Urinary levels of KIM-1 (Kidney injury molecule-1) and NGAL (Neutrophil Gelatinase-Associated Lipocalin) were quantified by ELISA (KIM-1 R&D cat #MKM100, NGAL R&D cat #MLCN20) following appropriate dilution of urine to fit standard curves. Values were normalised to urinary creatinine levels that were quantified at MRC Harwell Institute, Mary Lyon Centre, Oxfordshire, UK. Serum blood urea nitrogen levels were quantified at MRC Harwell Institute, Mary Lyon Centre, Oxfordshire, UK.
All levels were quanitifed on an AU680 Clinical Chemistry Analyser, Beckman Coulter.

exon 51 = details: in vivo; cited from earlier work

| Substance | Serum blood urea nitrogen levels [1] | levels of dystrophin restoration (exon 51) |
| --- | --- | --- |
| Ac-RXRRBRR-FQILY-RBRXR-B [Pip9b2] | elevated |  |
| eteplirsen |  | approximately 1 % of normal dystrophin levels |

Source: patent US12268749B2, “Cell-penetrating peptides” (Oxford University Innovation Limited, priority 2018, dated 2025)
